The values that follow are results of earlier work, collected in article PMC7696831.

The term Kd denotes the concentration at which binding is half-saturated.

This series has as its target SARS-CoV spike protein (Severe acute respiratory syndrome coronavirus) (UniProt P59594).

Sequence of angiotensin-converting enzyme 2 (Q9BYF1 18-708): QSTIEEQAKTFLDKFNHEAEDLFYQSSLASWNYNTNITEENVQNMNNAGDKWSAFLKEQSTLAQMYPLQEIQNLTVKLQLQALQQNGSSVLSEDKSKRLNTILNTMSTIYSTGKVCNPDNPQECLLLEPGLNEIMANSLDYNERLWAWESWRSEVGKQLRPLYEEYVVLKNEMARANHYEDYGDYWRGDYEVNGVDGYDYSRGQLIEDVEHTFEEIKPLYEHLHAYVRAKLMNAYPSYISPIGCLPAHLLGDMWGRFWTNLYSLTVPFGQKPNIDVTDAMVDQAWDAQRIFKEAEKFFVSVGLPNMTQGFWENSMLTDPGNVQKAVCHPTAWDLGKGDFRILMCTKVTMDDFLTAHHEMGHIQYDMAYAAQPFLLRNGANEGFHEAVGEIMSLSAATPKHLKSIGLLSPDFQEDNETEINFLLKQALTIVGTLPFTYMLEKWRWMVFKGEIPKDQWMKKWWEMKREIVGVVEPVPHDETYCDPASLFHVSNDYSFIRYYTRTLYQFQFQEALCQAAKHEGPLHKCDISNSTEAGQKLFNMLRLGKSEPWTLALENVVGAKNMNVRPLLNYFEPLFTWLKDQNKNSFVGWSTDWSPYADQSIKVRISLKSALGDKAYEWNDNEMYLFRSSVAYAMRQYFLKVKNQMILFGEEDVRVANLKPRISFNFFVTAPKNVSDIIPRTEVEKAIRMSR

On to “angiotensin-converting enzyme 2 (from UniProt Q9BYF1)”, for which the Kd is 0.326 µM.
